Results as given in article PMC7321842 (Nature, 2020).

B1: WH domain of LEM2 (LEM2WH; AA:395–503) (domain or fragment, human, UniProt Q8NC56 395-503, looked up)
chain: ILLKYRWRKLEEEEQAMYEMVKKIIDVVQDHYVDWEQDMERYPYVGILHVRDSLIPPQSRRRMKRVWDRAVEFLASNESRIQTESHRVAGEDMLVWRWTKPSSFSDSER
B2: CHMP7_(ESCRT-III) (AA:229–453) (domain or fragment, human, UniProt Q8WUX9 229-453, looked up)
chain: AKVSPVNDVDVGVYQLMQSEQLLSRKVESLSQEAERCKEEARRACRAGKKQLALRSLKAKQRTEKRIEALHAKLDTVQGILDRIYASQTDQMVFNAYQAGVGALKLSMKDVTVEKAESLVDQIQELCDTQDEVSQTLAGGVTNGLDFDSEELEKELDILLQDTTKEPLDLPDNPRNRHFTNSVPNPRISDAELEAELEKLSLSEGGLVPSSKSPKRQLEPTLKPL

Key:
full-length, human CHMP7 = biological target: T1, full-length, human CHMP7 (human, UniProt Q8WUX9 1-453); test: co-sedimentation
T1 sequence (looked up): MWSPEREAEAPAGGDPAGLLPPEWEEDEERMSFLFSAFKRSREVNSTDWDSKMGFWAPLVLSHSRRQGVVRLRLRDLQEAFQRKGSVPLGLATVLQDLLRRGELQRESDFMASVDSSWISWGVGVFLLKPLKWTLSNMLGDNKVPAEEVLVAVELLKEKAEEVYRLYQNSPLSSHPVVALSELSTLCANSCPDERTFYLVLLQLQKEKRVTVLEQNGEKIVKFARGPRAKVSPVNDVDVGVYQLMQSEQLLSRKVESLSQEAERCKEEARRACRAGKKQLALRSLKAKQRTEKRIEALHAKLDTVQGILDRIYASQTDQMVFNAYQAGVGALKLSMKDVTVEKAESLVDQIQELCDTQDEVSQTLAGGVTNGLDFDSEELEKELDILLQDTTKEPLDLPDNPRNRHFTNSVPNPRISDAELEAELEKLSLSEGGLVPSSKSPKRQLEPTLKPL

CHMP7_(R270E+I312E) = biological target: T2, CHMP7_(R270E+I312E) (human, UniProt Q8WUX9 1-453, R270E | I312E); test: co-sedimentation
T2 sequence (looked up): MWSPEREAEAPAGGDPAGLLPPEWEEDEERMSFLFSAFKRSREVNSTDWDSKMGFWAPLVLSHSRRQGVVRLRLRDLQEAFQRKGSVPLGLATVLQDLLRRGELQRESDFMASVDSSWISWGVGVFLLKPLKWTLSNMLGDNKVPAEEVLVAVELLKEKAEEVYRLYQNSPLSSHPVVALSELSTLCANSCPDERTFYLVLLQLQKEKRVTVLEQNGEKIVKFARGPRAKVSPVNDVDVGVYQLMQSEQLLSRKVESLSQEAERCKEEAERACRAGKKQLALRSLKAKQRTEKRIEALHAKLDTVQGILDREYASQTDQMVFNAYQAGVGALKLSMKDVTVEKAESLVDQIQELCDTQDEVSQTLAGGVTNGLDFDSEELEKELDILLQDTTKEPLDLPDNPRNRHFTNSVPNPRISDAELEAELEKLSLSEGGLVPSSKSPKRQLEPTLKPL

CHMP7_(R270E+V339D) = biological target: T3, CHMP7_(R270E+V339D) (human, UniProt Q8WUX9 1-453, R270E | V339D); test: co-sedimentation
T3 sequence (looked up): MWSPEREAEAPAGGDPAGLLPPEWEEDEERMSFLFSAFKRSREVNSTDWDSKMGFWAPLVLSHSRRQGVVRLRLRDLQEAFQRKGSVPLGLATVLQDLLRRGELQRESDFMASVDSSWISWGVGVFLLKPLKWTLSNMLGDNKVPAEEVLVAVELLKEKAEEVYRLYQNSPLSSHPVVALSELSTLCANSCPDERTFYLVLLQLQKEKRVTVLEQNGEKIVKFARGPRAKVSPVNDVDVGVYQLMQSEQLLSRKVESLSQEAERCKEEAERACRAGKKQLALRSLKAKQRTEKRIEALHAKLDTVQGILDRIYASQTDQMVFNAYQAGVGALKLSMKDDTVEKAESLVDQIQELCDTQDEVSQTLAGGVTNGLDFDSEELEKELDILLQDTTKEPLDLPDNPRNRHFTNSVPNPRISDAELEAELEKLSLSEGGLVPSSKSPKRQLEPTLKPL

CHMP7_(I312E+V339D) = biological target: T4, CHMP7_(I312E+V339D) (human, UniProt Q8WUX9 1-453, I312E | V339D); test: co-sedimentation
T4 sequence (looked up): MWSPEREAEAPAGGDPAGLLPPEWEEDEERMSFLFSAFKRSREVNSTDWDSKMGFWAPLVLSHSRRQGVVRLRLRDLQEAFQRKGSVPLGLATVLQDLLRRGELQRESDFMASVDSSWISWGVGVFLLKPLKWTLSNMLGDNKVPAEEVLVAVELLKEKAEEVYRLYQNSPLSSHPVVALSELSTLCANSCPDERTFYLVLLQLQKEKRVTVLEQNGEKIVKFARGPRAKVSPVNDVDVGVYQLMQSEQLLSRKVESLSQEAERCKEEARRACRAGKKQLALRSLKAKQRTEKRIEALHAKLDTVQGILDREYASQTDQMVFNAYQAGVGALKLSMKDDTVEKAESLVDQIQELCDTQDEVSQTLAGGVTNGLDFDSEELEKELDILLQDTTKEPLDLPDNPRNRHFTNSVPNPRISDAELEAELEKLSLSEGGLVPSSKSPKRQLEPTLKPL

[1] = biological target: the molecule itself; test: negative stain electron microscopy of polymers

| Binder | stoichiometry N (full-length, human CHMP7) | binding result (CHMP7_(R270E+I312E)) | binding result (CHMP7_(R270E+V339D)) | binding result (CHMP7_(I312E+V339D)) | binding result [1] |
| --- | --- | --- | --- | --- | --- |
| B1 | 1 | binds | binds | binds | – |
| B2 | – | – | – | – | binds |
